Data published in patent publication US20060058230A1 (published 2006).
Non-standard residues stand in square brackets, D forms with d. No end group written: not given here. 2Nal = N[C@@H](Cc1ccc2ccccc2c1)C(=O)O; Nle = CCCC[C@H](N)C(=O)O; βAla = NCCC(=O)O

Assays:
[1] = target: T1, recombinant hPTH1-receptor (human, UniProt Q03431 27-593); experiment: competition with 125I-[Nle8,18,Nal23,Tyr34]bPTH(1-34)NH2 on HEK293/C21 cells with hPTH1-receptor
T1 construct: whole, on cells; also called PTH1-Rc; HEK293/C21 cell line
T1 sequence (looked up): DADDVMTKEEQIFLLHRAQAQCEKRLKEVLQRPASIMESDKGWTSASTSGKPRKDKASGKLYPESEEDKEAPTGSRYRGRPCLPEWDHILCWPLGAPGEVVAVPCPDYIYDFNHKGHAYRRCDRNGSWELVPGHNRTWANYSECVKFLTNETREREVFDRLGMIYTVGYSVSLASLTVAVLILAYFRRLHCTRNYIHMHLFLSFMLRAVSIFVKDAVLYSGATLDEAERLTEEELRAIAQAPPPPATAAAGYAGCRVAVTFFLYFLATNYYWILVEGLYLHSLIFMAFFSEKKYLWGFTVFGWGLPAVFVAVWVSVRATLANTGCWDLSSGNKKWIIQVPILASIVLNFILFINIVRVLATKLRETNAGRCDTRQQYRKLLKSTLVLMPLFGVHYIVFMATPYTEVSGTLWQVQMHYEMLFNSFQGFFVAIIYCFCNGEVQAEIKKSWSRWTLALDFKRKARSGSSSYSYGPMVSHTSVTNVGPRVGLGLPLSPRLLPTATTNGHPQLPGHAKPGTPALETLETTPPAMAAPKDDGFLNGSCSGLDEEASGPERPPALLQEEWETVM
Description: Human embryonic kidney (HEK293) cells, stably transfected with recombinant hPTH1-receptor (HEK293/C21 cell line, ˜400,000 receptors/cell) (Pines, M., Adams, A. E., Stueckle, S., Bessalle, R., Rashti-Behar, V., Chorev, M., Rosenblatt, M., and Suva, L. J. Endocrinology 1994, 135, 1713-1716), were maintained in D-MEM medium supplemented with 10% fetal bovine serum and […] glutamine at 37° C. in a humidified atmosphere of 95% air/5% CO₂. The medium was changed every 3-4 days, and the cells were subcultured every week. Ligand stimulated adenylyl cyclase activity and radioreceptor competition binding assays were performed on confluent cultures, 1-3 days after a change of medium.
[Nle^{8,18},Nal²³,Tyr³⁴]bPTH(1-34)-NH₂ was radioiodinated and the crude material was purified as previously described (Roubini, E., Duong, L. T., Gibbons, S. W., Leu, C. T., Caulfield, M. P., Chorev, M., and Rosenblatt, M. Biochemistry 1992, 31, 4026-4033). Briefly, 67 μg of peptide in 50 μL phosphate buffer, pH 7.4, in a borosilicate tube, coated with 10 μg Iodogen® (Pierce Chemical), were treated at room temperature with 2 mCi [¹²⁵I]Na for 12 min, followed by dilution with 200 μL of 0.1% TFA in water.
Cells were plated in 24-well tissue culture dishes (Corning Glass Works, Corning, N.Y.) and grown to subconfluency. […] After incubation, cells were washed twice with PBS and lysed with 0.1 M NaOH. Radioactivity in the lysate was measured in a γ-counter (Analytic GammaTrac™ 1193).

[2] = target: T1, recombinant hPTH1-receptor; experiment: cell-based or functional assay

- IC50 [1]: 285 nM
- EC50 (half maximal stimulation of adenylate cyclase) [2]: 3.9 nM
B1: [Nle^8,β-Ala^18, Nal^23, Tyr^34]bPTH(1-34)NH2 (peptide)
peptide: AVSEIQF[Nle]HNLGKHLSS[βAla]ERVE[2Nal]LRKKLQDVHNY-NH2
modifications: N-terminus assumed
SMILES: CCCC[C@H](NC(=O)[C@H](Cc1ccccc1)NC(=O)[C@H](CCC(N)=O)NC(=O)[C@@H](NC(=O)[C@H](CCC(=O)O)NC(=O)[C@H](CO)NC(=O)[C@@H](NC(=O)[C@H](C)N)C(C)C)[C@@H](C)CC)C(=O)N[C@@H](Cc1c[nH]cn1)C(=O)N[C@@H](CC(N)=O)C(=O)N[C@@H](CC(C)C)C(=O)NCC(=O)N[C@@H](CCCCN)C(=O)N[C@@H](Cc1c[nH]cn1)C(=O)N[C@@H](CC(C)C)C(=O)N[C@@H](CO)C(=O)N[C@@H](CO)C(=O)NCCC(=O)N[C@@H](CCC(=O)O)C(=O)N[C@@H](CCCNC(=N)N)C(=O)N[C@H](C(=O)N[C@@H](CCC(=O)O)C(=O)N[C@@H](Cc1ccc2ccccc2c1)C(=O)N[C@@H](CC(C)C)C(=O)N[C@@H](CCCNC(=N)N)C(=O)N[C@@H](CCCCN)C(=O)N[C@@H](CCCCN)C(=O)N[C@@H](CC(C)C)C(=O)N[C@@H](CCC(N)=O)C(=O)N[C@@H](CC(=O)O)C(=O)N[C@H](C(=O)N[C@@H](Cc1c[nH]cn1)C(=O)N[C@@H](CC(N)=O)C(=O)N[C@@H](Cc1ccc(O)cc1)C(N)=O)C(C)C)C(C)C
notes: Synthetic analog of bovine PTH(1-34), carboxamide at the C-terminus
